According to publication PMC3913438, “Nucleotide Pyrophosphatase/Phosphodiesterase 1 Exerts a Negative Effect on Starch Accumulation and Growth in Rice Seedlings under High Temperature and CO2 Concentration Conditions” (Plant and Cell Physiology, 2013):

Columns and labels:
[1] = target: T1, NPP1 (Oryza sativa, UniProt Q0X0G2); assay: hydrolysis kinetics, […] substrate; format: biochemical; settings: 37°C, optimal pH
T1 construct: recombinant, purified from transgenic rice cells (UNP1) overexpressing NPP1 cDNA; 70 kDa SDS-PAGE, 251 kDa gel filtration; gene on chromosome 8
T1 sequence (Q0X0G2 26-623): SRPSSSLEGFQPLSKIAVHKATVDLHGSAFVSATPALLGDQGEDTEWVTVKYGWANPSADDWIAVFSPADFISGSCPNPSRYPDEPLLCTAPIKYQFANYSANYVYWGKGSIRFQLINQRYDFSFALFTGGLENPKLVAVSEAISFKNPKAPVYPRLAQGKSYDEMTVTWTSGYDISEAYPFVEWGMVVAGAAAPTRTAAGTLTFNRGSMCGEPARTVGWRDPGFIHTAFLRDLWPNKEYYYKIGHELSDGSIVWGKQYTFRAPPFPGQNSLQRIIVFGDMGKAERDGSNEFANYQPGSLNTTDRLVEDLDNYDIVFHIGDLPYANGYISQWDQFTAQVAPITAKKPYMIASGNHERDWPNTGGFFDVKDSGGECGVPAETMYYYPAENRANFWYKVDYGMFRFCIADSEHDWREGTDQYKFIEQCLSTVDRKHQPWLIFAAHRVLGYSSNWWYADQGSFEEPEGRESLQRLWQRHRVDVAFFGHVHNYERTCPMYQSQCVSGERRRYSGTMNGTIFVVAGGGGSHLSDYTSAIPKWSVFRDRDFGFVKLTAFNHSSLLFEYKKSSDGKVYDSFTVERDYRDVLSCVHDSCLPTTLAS

[2] = substrate: NC(=O)c1ccc[n+]([C@@H]2O[C@H](COP(=O)([O-])OP(=O)(O)OC[C@H]3O[C@@H](n4cnc5c(N)ncnc54)[C@H](OP(=O)(O)O)[C@@H]3O)[C@@H](O)[C@H]2O)c1; assay: purified protein, by the assay type; parameters: steady-state hydrolysis kinetics of purified recombinant rice NPPs, substrate 0.1-10 mM, 37 °C, optimal pH
Description: (§1) To carry out substrate specificity and kinetic studies of NPP1, NPP2 and NPP6, in this work we produced transgenic rice cells ectopically expressing NPP1, NPP2 and NPP6 and purified the corresponding recombinant proteins as described in the Materials and Methods. Details of the processes for purification of recombinant proteins and quality of the final preparations are shown in Supplementary Table S2 and Supplementary Fig. S1A. […] Purification procedures of NPP1, NPP2 and NPP6 expressed in the transgenic rice cells (UNP1, UNP2 and UNP6, respectively) were essentially identical to those used in the earlier study ([Nanjo et al. 2006]). They are summarized in Supplementary Table S2. Rice callus cells (200 g) derived from the seed embryos of UNP1, UNP2 and UNP6 lines were homogenized in 5 vols. of 10 mM Tris–HCl (pH 8.8) and filtered through four layers of gauze. The homogenates were centrifuged at 20,000 × g for 10 min. The supernatants were then adjusted to acidic pH 5.4 with acetate buffer and centrifuged at 20,000 × g. After re-adjustment to pH 7.4 with 1.5 M Tris–HCl (pH 8.8) and further centrifugation at 20,000 × g, the resulting supernatants were applied to a Con A–Sepharose 4B column (ø 1.0 × 8 cm, Pharmacia) equilibrated with 40 mM Tris–HCl (pH 7.4), 0.5 M NaCl, 1 mM MnCl2 and 1 mM CaCl2, and eluted with 25 ml of 0.5 M α-methyl-D-mannopyranoside in 10 mM Tris–HCl (pH 7.4). The eluents were applied to a Q Sepharose HP column (ø 1.0 × 3 cm, Pharmacia) equilibrated with 10 mM Tris–HCl (pH 7.4) and eluted with 50 ml of a linear gradient of 0–0.5 M NaCl in 10 mM Tris–HCl (pH 7.4). Finally, the enzyme preparation was desalted by ultrafiltration on a Microcon YM-100 (Amicon).

[3] = substrate: Nc1ncnc2c1ncn2[C@@H]1O[C@H](COP(=O)(O)OP(=O)(O)O[C@H]2O[C@H](CO)[C@@H](O)[C@H](O)[C@H]2O)[C@@H](O)[C@H]1O; assay: purified protein; format: biochemical, Oryza sativa; settings: 37°C
[4] = substrate: NC(=O)c1ccc[n+]([C@@H]2O[C@H](COP(=O)(O)OP(=O)(O)OC[C@H]3O[C@@H](n4cnc5c(N)ncnc54)[C@H](O)[C@@H]3O)[C@@H](O)[C@H]2O)c1; assay: purified protein; format: biochemical, Oryza sativa; settings: 37°C, optimal pH
[5] = substrate: O=c1ccn([C@@H]2O[C@H](COP(=O)(O)OP(=O)(O)O)[C@@H](O)[C@H]2O)c(=O)[nH]1; assay: purified protein; settings: 37°C, optimal pH
[6] = substrate: O=c1ccn([C@@H]2O[C@H](CO[P@@](=O)(O)O[P@@](=O)(O)O[C@H]3O[C@H](CO)[C@@H](O)[C@H](O)[C@H]3O)[C@@H](O)[C@H]2O)c(=O)[nH]1; assay: purified protein, by the assay type; parameters: steady-state hydrolysis kinetics of purified recombinant rice NPPs, substrate 0.1-10 mM, 37 °C, optimal pH
Description: as §1

[7] = substrate: O=P(O)(O)OP(=O)(O)O; assay: purified protein; format: biochemical, Oryza sativa; settings: 37°C, optimal pH
[8] = substrate: Nc1ncnc2c1ncn2[C@@H]1O[C@H](COP(=O)(O)OP(=O)(O)O)[C@@H](O)[C@H]1O; assay: purified protein; format: biochemical, Oryza sativa; settings: 37°C, no metal required
[9] = substrate: O=[N+]([O-])c1ccc(OP(=O)(O)Oc2ccc([N+](=O)[O-])cc2)cc1; assay: purified protein; format: biochemical, Oryza sativa; settings: 37°C, optimal pH
[10] = substrate: Nc1ccn([C@@H]2O[C@H](COP(=O)(O)OP(=O)(O)O)[C@@H](O)[C@H]2O)c(=O)n1; assay: purified protein; format: biochemical, Oryza sativa; settings: 37°C, optimal pH
[11] = substrate: Nc1nc2c(ncn2[C@@H]2O[C@H](COP(=O)(O)OP(=O)(O)O)[C@@H](O)[C@H]2O)c(=O)[nH]1; assay: purified protein; format: biochemical, Oryza sativa; settings: 37°C, optimal pH
[12] = substrate: O=c1[nH]cnc2c1ncn2[C@@H]1O[C@H](COP(=O)(O)OP(=O)(O)O)[C@@H](O)[C@H]1O; assay: purified protein; format: biochemical, Oryza sativa; settings: 37°C, optimal pH
[13] = optimal pH (pH 6.0 with ADP-glucose), no metal required, pH 6.0
[14] = optimal pH (pH 5.0 with ADP-glucose), pH 5.0
[15] = optimal pH (pH 4.0 with ADP), pH 4.0
[16] = optimal pH (pH 4.5 with ADP), pH 4.5

Nc1nc2c(ncn2[C@@H]2O[C@H](COP(=O)(O)OP(=O)(O)O[C@H]3O[C@H](CO)[C@@H](O)[C@H](O)[C@@H]3O)[C@@H](O)[C@H]2O)c(=O)[nH]1 [GDP-mannose]
Km [1]: 800 µM

Nc1ccn([C@@H]2O[C@H](COP(=O)(O)OP(=O)(O)O[C@H]3O[C@H](CO)[C@@H](O)[C@H](O)[C@H]3O)[C@@H](O)[C@H]2O)c(=O)n1 [CDP-glucose]
Km [1]: 900 µM

Nc1ncnc2c1ncn2[C@@H]1O[C@H](COP(=O)(O)OP(=O)(O)OP(=O)(O)O)[C@@H](O)[C@H]1O [ATP]
Km [1]: 2100 µM

B1: NPP1 (Oryza sativa Japonica Group) (protein)
chain: SRPSSSLEGFQPLSKIAVHKATVDLHGSAFVSATPALLGDQGEDTEWVTVKYGWANPSADDWIAVFSPADFISGSCPNPSRYPDEPLLCTAPIKYQFANYSANYVYWGKGSIRFQLINQRYDFSFALFTGGLENPKLVAVSEAISFKNPKAPVYPRLAQGKSYDEMTVTWTSGYDISEAYPFVEWGMVVAGAAAPTRTAAGTLTFNRGSMCGEPARTVGWRDPGFIHTAFLRDLWPNKEYYYKIGHELSDGSIVWGKQYTFRAPPFPGQNSLQRIIVFGDMGKAERDGSNEFANYQPGSLNTTDRLVEDLDNYDIVFHIGDLPYANGYISQWDQFTAQVAPITAKKPYMIASGNHERDWPNTGGFFDVKDSGGECGVPAETMYYYPAENRANFWYKVDYGMFRFCIADSEHDWREGTDQYKFIEQCLSTVDRKHQPWLIFAAHRVLGYSSNWWYADQGSFEEPEGRESLQRLWQRHRVDVAFFGHVHNYERTCPMYQSQCVSGERRRYSGTMNGTIFVVAGGGGSHLSDYTSAIPKWSVFRDRDFGFVKLTAFNHSSLLFEYKKSSDGKVYDSFTVERDYRDVLSCVHDSCLPTTLAS
notes: recombinant, purified from transgenic rice cells (UNP1) overexpressing NPP1 cDNA; 70 kDa SDS-PAGE, 251 kDa gel filtration; gene on chromosome 8
Km [2]: 1600 µM
Vmax [2]: 121 µmol/min/mg
kcat [2]: 141 s⁻¹
kcat/Km [2]: 85000 M⁻¹ s⁻¹
Km [3, 13]: 800 µM
Vmax [3, 13]: 183 µmol/min/mg
kcat [3, 13]: 214 s⁻¹
kcat/Km [3, 13]: 250000 M⁻¹ s⁻¹
Km [4]: 800 µM
Vmax [4]: 93 µmol/min/mg
kcat [4]: 109 s⁻¹
kcat/Km [4]: 133000 M⁻¹ s⁻¹

B2: NPP6 (Oryza sativa Japonica Group) (protein)
chain: GGGGGVWAFSSSSSSSSYSRIGEQPLSLIGIHRATVGIDAAASVQASPRLLGVKGEDTAWVTVDFAAPHASDGDWIGVFSPSNFNASTCPGPSGSDSGPVICSAPIKYQLANYSSDYGKTGKGTLKFQLINQRQDFSFALFTGGLSNPKLIAVSNKIAFANPKAPVYPRLAQGKSWNEMTVTWTSGYDIKEAYPFVEWGMKWSPPTRTAAGTVTFDRESLCGEPARTVGWRDPGFIHTAFLTDLWPNKEYYYKIGHMLPDGKIVWGKFYSFKAPPFPGQKSLQRVVIFGDMGKAERDGSNEYSNYQPGSLNTTDTLIKDLDNIDIVFHIGDITYANGYISQWDQFTQQVEPITARVPYMIASGNHERDWPNSGSFFNGTDSGGECGVLAETMYYTPTENRANYWYKTDYGMFRFCVADSEHDWREGTEQYAFIESCLATVDRKKQPWLVFIAHRVLGYSSGFFYGAGGAFAEPTARQSLQRLWQRHRVDLAFYGHVHNYERTCPVYDGRCASPERSRYSGAVGGTIHAVVGGGGSHLSNFTAEAPPWSVYREMDYGFVKLTAFNYTSLLYEYRRSSDGEVHDSFTVHREYRDVLACVADSCPPTIPPAT
notes: recombinant, purified from transgenic rice cells (UNP6); 74 kDa SDS-PAGE, 224 kDa gel filtration; gene on chromosome 9
Km [5]: 500 µM
Vmax [5]: 84 µmol/min/mg
kcat [5]: 104 s⁻¹
kcat/Km [5]: 203000 M⁻¹ s⁻¹
Km [6]: 1600 µM
kcat [6]: 115 s⁻¹
kcat/Km [6]: 73000 M⁻¹ s⁻¹
Km [7]: 500 µM
Vmax [7]: 64 µmol/min/mg
kcat [7]: 79 s⁻¹
kcat/Km [7]: 175000 M⁻¹ s⁻¹
Km [3, 14]: 700 µM
Vmax [3, 14]: 105 µmol/min/mg
kcat [3, 14]: 130 s⁻¹
kcat/Km [3, 14]: 193000 M⁻¹ s⁻¹
Km [8, 15]: 300 µM
Vmax [8, 15]: 68 µmol/min/mg
kcat [8, 15]: 83 s⁻¹
kcat/Km [8, 15]: 297000 M⁻¹ s⁻¹
Km [9]: 3000 µM
Vmax [9]: 250 µmol/min/mg
kcat [9]: 308 s⁻¹
kcat/Km [9]: 103000 M⁻¹ s⁻¹

B3: NPP2 (Oryza sativa Japonica Group) (protein)
chain: RGDEQPLSRIAIERATVAAVDSASVKAQPTVLGLKGQSSDWVVVEFSHPKPSNDDWIGVFSPSGFSSEICQPEYYGDLPPYLCTSPIKFQYANFNNADYNRSGKGLLRLQLINQREDFSFALFSGGLSAPKLIAISNKVSFQNPKAPVYPRLAQGKSWNEMTVTWTSGYSIKEAIPFVEWGHKGGNQMLSPAGTLTFSRNSMCGSPARTVGWRDPGYIHTSFLKELWPDSLYTYRLGHRLLDGTHIWSKSYSFRASPYPGQDSVQRVVIFGDMGKAEIDGSDEYGNYEQASLYTTNQLIKELDSIDMVIHIGDLSYANGYLSQWDQFTQQIEPIASTVPYMIGSGNHERDWPGSGSFYGHNDSGGECGVPTQTMFYVPAENRAKLWYSTDYGMFRFCIADTEQDWRPGTEQYKFIEQCLSSVDRSKQPWLIFLAHRVLGYSSASWYEIMMGSYGEPMGRDGLEELWQKYKVDLAVFGHIHSYERTCPIYQNRCVQDGSNLYTGQFNATTHVIVGGGGAMLSPFRATVPYWSFFRDYDFGFSKLTALNHSTLLFEYKKSRDGKVYDHFTISRDYRDIMACSIDNCPRTTLAV
notes: recombinant, purified from transgenic rice cells (UNP2); 71 kDa SDS-PAGE, 374 kDa gel filtration; gene on chromosome 12
Km [5]: 1200 µM
Vmax [5]: 85 µmol/min/mg
kcat [5]: 101 s⁻¹
kcat/Km [5]: 84000 M⁻¹ s⁻¹
Km [10]: 1900 µM
Vmax [10]: 76 µmol/min/mg
kcat [10]: 89 s⁻¹
kcat/Km [10]: 47000 M⁻¹ s⁻¹
Km [11]: 900 µM
Vmax [11]: 24 µmol/min/mg
kcat [11]: 28 s⁻¹
kcat/Km [11]: 32000 M⁻¹ s⁻¹
Km [12]: 2200 µM
Vmax [12]: 75 µmol/min/mg
kcat [12]: 88 s⁻¹
kcat/Km [12]: 40000 M⁻¹ s⁻¹
Km [8, 16]: 1100 µM
kcat [8, 16]: 80 s⁻¹
kcat/Km [8, 16]: 73000 M⁻¹ s⁻¹
Km [9]: 2600 µM
Vmax [9]: 60 µmol/min/mg
kcat [9]: 71 s⁻¹
kcat/Km [9]: 27000 M⁻¹ s⁻¹
